In patent publication US7803382B2, “Method for inducing immune response to NY-CO-58” (Ludwig Institute for Cancer Research Ltd., priority 2001, dated 2010):

B1: REN-32 (Lamin C): serologically defined colon cancer antigen, protein SEQ ID NO:25 (protein, listed as Homo sapiens)
chain: METPSQRRATRSGAQASSTPLSPTRITRLQEKEDLQELNDRLAVYIDRVRSLETENAGLRLRITESEEVVSREVSGIKAAYEAELGDARKTLDSVAKERARLQLELSKVREEFKELKARNTKKEGDLIAAQARLKDLEALLNSKEAALSTALSEKRTLEGELHDLRGQVAKLEAALGEAKKQLQDEMLRRVDAENRLQTMKEELDFQKNIYSEELRETKRRHETRLVEIDNGKQREFESRLADALQELRAQHEDQVEQYKKELEKTYSAKLDNARQSAERNSNLVGAAHEELQQSRIRIDSLSAQLSQLQKQLAAKEAKLRDLEDSLARERDTSRRLLAEKEREMAEMRARMQQQLDEYQELLDIKLALDMEIHAYRKLLEGEEERLRLSPSPTSQRSRGRASSHSSQTQGGGSVTKKRKLESTESRSSFSQHARTSGRVAVEEVDEEGKFVRLRNKSNEDQSMGNWQIKRQNGDDPLLTYRFPPKFTLKAGQVVTIWAAGAGATHSPPTDLVWKAQNTWGCGNSLRTALINSTGEEVAMRKLVR
B2: TNKL (BC-203): serologically defined colon cancer antigen, protein SEQ ID NO:26 (protein, listed as Homo sapiens)
chain: QGAQRGARVGAAMGLRRSGDSREPSGPGPERVFSGGPRPPARGAGAPAPVAGAVAGCGGGQDHVGSPLRRRGSGLRDAAAEAVEPAARELFEACRNGDVERVKRLVTPEKVNSRDTAGRKSTPLHFAAGFGRKDVVEYLLQNGANVQARDDGGLIPLHNACSFGHAEVVNLLLRHGADPNARDNWNYTPLHEAAIKGKIDVCIVLLQHGAEPTIRNTDGRTALDLADPSAKAVLTGEYKKDELLESARSGNEEKMMALLTPLNVNCHASDGRKSTPLHLAAGYNRVKIVQLLLQHGADVHAKDKGDLVPLHNACSYGHYEVTELLVKHGACVNAMDLWQFTPLHEAASKNRVEVCSLLLSYGADPTLLNCHNKSAIDLAPTPQLKERLAYEFKGHSLLQAAREADVTRIKKHLSLEMVNFKHPQTHETALHCAAASPYPKRKQICELLLRKGANINEKTKEFLTPLHVASEKAHNDVVEVVVKHEAKVNALDNLGQTSLHRAAYCGHLQTCRLLLSYGCDPNIISLQGFTALQMGNENVQQLLQEGISLGNSEADRQLLEAAKAGDVETVKKLCTVQSVNCRDIEGRQSTPLHFAAGYNRVSVVEYLLQHGADVHAKDKGGLVPLHNACSYGHYEVAELLVKHGAVVNVADLWKFTPLHEAAAKGKYEICKLLLQHGADPTKKNRDGNTPLDLVKDGDTDIQDLLRGDAALLDAAKKGCLARVKKLSSPDNVNCRDTQGRHSTPLHLAAGYNNLEVAEYLLQHGADVNAQDKGGLIPLHNAASYGHVDVAALLIKYNACVNATDKWAFTPLHEAAQKGRTQLCALLLAHGADPTLKNQEGQTPLDLVSADDVSALLTAAMPPSALPSCYKPQVLNGVRSPGATADALSSGPSSPSSLSAASSLDNLSGSFSELSSVVSSSGTEGASSLEKKEVPGVDFSITQFVRNLGLEHLMDIFEREQITLDVLVEMGHKELKEIGINAYGHRHKLIKGVERLISGQQGLNPYLTLNTSGSGTILIDLSPDDKEFQSVEEEMQSTVREHRDGGHAGGIFNRYNILKIQKVCNKKLWERYTHRRKEVSEENHNHANERMLFHGSPFVNAIIHKGFDERHAYIGGMFGAGIYFAENSSKSNQYVYGIGGGTGVQFTKTDLVTFATAAALLPGNLGKVFPAVQCNENGTSPPGHHSVTGRPSVNGLALAEYVIYRGEQAYPEYLITYQIMRPEGMVDG
B3: CO-26 (MNK 1): serologically defined colon cancer antigen, protein SEQ ID NO:27 (protein, listed as Homo sapiens)
chain: HIQKQKHFNEREASRVVRDVAAALDFLHTKGIAHRDLKPENILCESPEKVSPVKICDFDLGSGMKLNNSCTPITTPELTTPCGSAEYMAPEVVEVFTDQATFYDKRCDLWSLGVVLYIMLSGYPPFVGHCGADCGWDRGEVCRVCQNKLFESIQEGKYEFPDKDWAHISSEAKDLISKLLVRDAKQKLSAAQVLQHPWVQGQAPEKGLPTPQVLQRNSSTMDLTLFAAEAIALNRQLSQHEENELAEEPEALADGLCSMKLSPPCKSRLARRRALAQAGRGENRSPPTAL

The molecules below were run on sera from colon cancer patients (assay: Spot assay: reactivity of serologically defined colon cancer antigens with colon cancer patient sera). Settings: reactive sera/sera tested; includes autologous where applicable; sera 1:200.
Type: binding, human
Protocol: Serum samples from patients with colon cancer were screened using a modification of the plaque assay, termed a spot assay. In this method, 80×120 mm nitrocellulose membranes were precoated with a film of NZY/0.7% Agarose/2.5 mM IPTG and placed on a reservoir layer of NZY/0.7% Agarose in a 86×128 mm Omni Tray (Nalge Nunc International Corp., Naperville, Ill.). Approximately 1.0×10^5 pfU of monoclonal phage encoding individual serologically defined colon cancer antigens, in a volume of 20 μl, were mixed with 20 μl of exponentially growing E. coli XL-1 Blue MRF and spotted (0.7-μl aliquots) on the precoated nitrocellulose membranes. Membranes were incubated for 15 hours at 37° C. A total of 75 different serologically defined colon cancer antigens were spotted in duplicate per nitrocellulose membrane. The agarose film was then removed from the membrane and the filters were processed for reactivity with individual serum samples (1:200 dilution), as described in Scanlan, et al., Int. J. Cancer 76:652-658 (1998) and Scanlan, et al., Int. J. Cancer 83:456-64, (1999).

Row | Molecule | Reactivity of individual antigens
1 | B1 | 3/75
2 | B2 | 6/75
3 | B3 | 2/76
